The values that follow are results of earlier work, collected in PMC6070697.

Holding throughout (assay): kinetics
Common to all, as to settings: enzyme turning over with acetyl-CoA and an amine substrate

The target of data set [1] is Glu34 (UniProt position 34, HYYPEEPLTAG).
Data set [2] concerns the target Glu47 (UniProt position 82, FFFKDEPLNTF).
For data set [3], the system named is Glu26.

As to “Agmatine N-acetyltransferase (Dm-AgmNAT; formerly Dm-AANATL8) (Drosophila melanogaster)”, the pKa entry in data set [1] is “approximately pH 7.5”. Turning to “Arylalkylamine N-acetyltransferase A (Dm-AANATA; dopamine N-acetyltransferase) (Drosophila melanogaster)”, the pKa result in data set [2] is listed as “approximately pH 7.5”.

On to “Arylalkylamine N-acetyltransferase like 7 (Dm-AANATL7) (Drosophila melanogaster)”, for which the pKa entry in data set [3] is given as “approximately pH 7.5”.
